Test results reported in paper doi:10.1101/2022.05.04.490172.

Molecular target: T1, BRN2 DNA-binding domain (BRN2-DBD) (Homo sapiens, UniProt P20265 264-415)
T1 sequence: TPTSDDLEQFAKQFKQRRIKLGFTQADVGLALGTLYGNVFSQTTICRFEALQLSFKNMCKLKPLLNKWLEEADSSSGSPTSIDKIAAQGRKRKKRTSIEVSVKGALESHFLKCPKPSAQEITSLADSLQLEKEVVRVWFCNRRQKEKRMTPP
Assay: X-ray crystallography

B1: MORE DNA (dsDNA)
DNA 1: GTATGCAAATAAG
DNA 2: CTTATTTGCATAC
binding result: binds
